Laboratory results from the supplement of paper PMC12042874.
± gives the uncertainty stated by the source.

Test: amyloid nucleation score (Sup35N fusion, yeast selection) (log enrichment); library NNK1; higher = more nucleation; inactive = no reads after selection
How it was run: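 Using DiMSum, nucleation scores were taken as the log enrichment of output over input reads, centred on the mode score of non-aggregating sequences. The input and output reads came from Illumina sequencing of plasmid inserts, with sequences under 100 input reads excluded. The yeast were psi-negative, expressed Sup35N fused to peptides of 20 random codons, were induced with 100 μM copper sulfate for 24 hours, and were grown 7 days at 30°C on medium lacking adenine and uracil.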

Substance	amyloid nucleation score
NMCNLSFLQ	0.104 ± 1.1
NMFTFLSKRR	-0.928 ± 0.4
NMHLTYETDRFARYVNSKFN	0.744 ± 0.46
NMHNQVAFISCSFILFDVIN	6.95 ± 0.07
NMIVKSATEAANSP	1.25 ± 0.56
NMLVRKAG	-0.036 ± 0.73
NMTFSMPSNINCPFLGLR	0.29 ± 0.47
NMVLRFQCLWFCFISIPF	3.16 ± 0.14
NMYKSMNQSTE	-0.705 ± 0.26
NNAHRSVVWRYLVCFSCDFG	6.454 ± 0.064
NNFSCMDHILSMVKLWDVFG	-0.847 ± 0.59
NNINWVKGKHR	-1.06 ± 2.4
NNLMFNYSGHMVSVKAHSSG	0.776 ± 0.43
NNQHDGYSIFILDRQPLRAM	0.488 ± 0.59
NNRCPCYSILWNRWRNKVA	inactive
NNSLKCCLFLMSNLKSSRVN	6.08 ± 0.066
NNVAGCLEFHRYQGMCGRSM	1.04 ± 0.36
NNYNYLYTYNMQNQKQFIFM	7.281 ± 0.066
NPCHKMFSRNPHLYMAAVKS	0.335 ± 0.96
NPFYKT	0.268 ± 0.37
NPHCVSLKTRIPFVGGSKCG	-0.748 ± 1.2
NPLMTTLATSDMWRNQFISG	1.38 ± 0.41

Substance	amyloid nucleation score
NPPWQCGVRHDHLWVTSYHS	-0.481 ± 0.32
NPSNKCLSEPWQDHLLGAWR	0.758 ± 0.67
NQCYYRAGLFRVDLFCLELA	inactive
NQVENTWCMSLRLFSYSHTL	7.548 ± 0.058
NRFYYKARCRQVGHCT	0.743 ± 0.46
NRKAPFNQA	-1.09 ± 1.4
NRKRFHGMNDASAAYFREVC	-1.33 ± 2.7
NRLGLGPVSSICGR	-0.339 ± 0.81
NRLKFSLV	-2.62 ± 2.7
NRLNTTDWYSI	-0.342 ± 0.74
NRLRNGPNDRVVRATAPKGF	0.259 ± 0.4
NRQSNSVVYNARQETFIRHL	3.39 ± 0.14
NRRCGGASSIRTGNRIWDDW	2.22 ± 0.23
NRRDDNQCVSWIGVKAKVLS	0.564 ± 0.43
NRSLKCICRRSVGRRSQNLR	0.57 ± 0.5
NRTIFVVRHTDFGYLA	0.661 ± 0.75
NRYMWDFSIAGVGVRLWINS	-0.896 ± 0.55
NSASYII	-0.048 ± 0.24
NSCTGSGGCSWEDKGNWCVK	0.183 ± 0.28
NSEKLPMHPRGHAGQAWVQS	0.153 ± 0.45
NSEMCWFFNMISSTLAHLLV	1.75 ± 0.31
NSFRAAHWSEMVPAELGRSV	-0.513 ± 0.41

Substance	amyloid nucleation score
NSFSDAYKIVYLHIYRSGGI	-0.448 ± 0.6
NSFVYQWFGYVSFKLFRCTV	0.316 ± 0.26
NSFWTLVFSGHPACWLTVFI	-0.75 ± 0.59
NSGNHDSCKFFGLLVRQMVG	0.529 ± 0.46
NSGRVNTLWFCLSDTMLVTS	inactive
NSGVVRLFPYFMYRTAWLKS	0.224 ± 0.41
NSHHKKGHVKRAVRLLHYPV	0.799 ± 0.84
NSINFFNMFVYWL	6.26 ± 0.056
NSLCEFSMKMFTYNSMGGFI	1.86 ± 0.26
NSLLGYLYSYVVFYREHIVI	-0.326 ± 1.2
NSMIVAHKLDCACPASAKDR	4.94 ± 0.053
NSNCELGKVHFAV	0.501 ± 0.35
NSRFKNFMSNTHVH	inactive
NSRWSIFFASMCDIRLWCVV	0.755 ± 0.84
NSVVRVIKRSWRTVVLLHDR	-0.621 ± 1.4
NSVWLLTNVLKFGTNVSRHR	2.57 ± 0.16
NSYWLRCILPM	-0.065 ± 0.3
NTCTMCGWICAFLRPVFCVV	0.745 ± 1.2
NTFYCCFLFFY	6.517 ± 0.044
NTGIS	-1.22 ± 1.4
NTHSPSFGFAMIRSGDTEKF	inactive
NTHTAWNRIGRTWRQNWTWG	0.061 ± 0.47

Substance	amyloid nucleation score
NTKSSVSYYFFMGIIFFSEI	0.355 ± 0.32
NTLSISDSYVEYETWEVIPV	1.62 ± 0.5
NTQTFEAFSKSFMDLIVRRF	-0.735 ± 1.2
NTSDDYIDLRYNHKGEAFEG	inactive
NTTATLMGHTQPIYSIYSVF	1.11 ± 0.94
NVDFTSYMLDMM	0.042 ± 0.41
NVILKDLQVYPEKAVSINRY	1.05 ± 0.32
NVIVKDLVLDNTFCVARVQA	-0.639 ± 0.42
NVQVKWGQTRVTCWDYGGEH	0.467 ± 0.34
NVRRLIFIMLKLDAICYWSS	-0.695 ± 1.1
NVVSYFHMAFGWCFNLW	1.94 ± 0.26
NVVWAYSMAFMTSAFSVNYP	inactive
NVWNVFWLNN	inactive
NWELRRVTRKWRSGDTSLSD	-2.04 ± 2.4
NWHPISVGSFYIVGLMRHRR	4.03 ± 0.11
NWMCKHSVGP	0.665 ± 0.72
NYAARPHSRSLLGAYDCSWS	0.731 ± 0.47
NYHLGCCNISMF	7.856 ± 0.047
NYLGRVLFFYNWFDKQYRSK	5.878 ± 0.048
